Results from patent publication US20200239586A1 (LA TROBE UNIVERSITY, published 2020).
Blank lines part the entries; values can stand above or below the binder they belong to. Ends that are not written are not given here. * marks the point of attachment. Biotin = O=C1N[C@H]2[C@H](CS[C@H]2CCCCC(=O)*)N1

How the values were obtained:
[1] = molecular target: phage expressed hFn14 mutant F63A (human, UniProt Q9NP84 28-77); experiment: phage ELISA (Method 2): antibody coated on the plate, 10-fold dilutions of phage displaying hFn14 F63A; HRP-conjugated anti-M13 phage polyclonal IgG, TMB, OD 450 nm; x axis = dilution of phage
From the text: For mutants P59A and F63A, binding was detected using HRP-conjugated anti-M13-phage polyclonal IgG and TMB substrate. For all other mutants binding was detected using Biotin-conjugated anti-M13-phage monoclonal antibody followed by HRP-conjugated Streptavidin and TMB substrate. Optical density at 450 nm was quantified using a Spectramax spectrophotometer. Error bars for each dilution represent the standard deviation of duplicate assays. FIG. 27A wild type Fn14, FIG. 27B W42A, FIG. 27C S54A, FIG. 27D A57G, FIG. 27E P59A, FIG. 27F S61A, FIG. 27G F63A, FIG. 27H L65A. In all cases error bars represent the standard deviation. X axis=dilution of phage. Methods according to Epitope mapping using phage expressed Fn14—Method 2
(§1) The wells of Maxisorp immunoplates (Nunc) were coated overnight at 4° C. with the target monoclonal antibodies or recombinant Tweak-Fc at a concentration of 1.5 μg/ml in PBS. mAb 5G8 was used as a negative control for ELISA plates coated with tested antibodies. […] 10-fold serial dilutions of phage were made using PBS solution and phage dilutions were added to the coated, blocked ELISA plates for 1 hour, shaking at room temperature. Phage was subsequently removed from the wells and the ELISA plates were washed three times with PBS/0.05% Tween 20. […]

[2] = molecular target: T1, synthetic peptide hFn14 sub-domain 3 (human, cysteine pairing not given here); experiment: ELISA on biotinylated sub-domain 3 peptide, mAb at 0.2 ug/ml
T1 construct: also called sub-domain 3 peptide
T1 peptide: ASCRARPHSDFCLGK(Biotin)
Protocol: An additional lysine residue was added to the C-terminus in order to attach a biotin moiety and to enable the peptides to bind to neutravidin coated plates (Pre-blocked; Pierce). For these experiments, a control peptide with a biotin at the C-terminus was used as a negative control and isotype control antibodies were also used.
The ELISA was performed essentially according to the manufacturer's recommended protocol (Pierce). Briefly, peptide was coated onto wells (in duplicate) at 1-10 μg/ml for 2 hours at room temperature. Wells were washed in PBS/0.05% Tween 20/0.1% BSA 3 times and dilutions of each antibody were added in wash buffer for 1 hour with gentle agitation. After another three washes anti-mouse HRP-conjugated to horse radish peroxidase (HRP; Chemicon) was added at 1/1000 dilution for 1 hour shaking. Finally, after 4 further washes the plate was developed using TMB (3,3′,5,5′-tetramethylbenzidine) substrate (Pierce), and the reaction was stopped using 2M H2SO4 solution. Optical density at 450 nm was quantified using a Spectromax absorbance spectrophotometer.
The reactivity of CRCBT-06-001 CRCBT-06-002, CRCBT-06-003, CRCBT-06-004, CRCBT-06-005, CRCBT-06-006 and CRCBT-06-007 with sub-domain 3 was lower than for sub-domain 2, indicating this region may be a partial epitope for these antibodies. However, the differences in binding to this region could reveal subtle variations in the contact regions of the antibodies with hFn14. The order of binding from strongest to weakest was CRCBT-06-005, CRCBT-06-002, CRCBT-06-001, CRCBT-06-006, CRCBT-06-007 and ITEM-1. The relative binding of each antibody to sub-domain 3 at a single point in the linear region of the curves was measured at 0.2 µg/ml (FIG. 21C). […] This could indicate the epitope of ITEM-1 may differ slightly to the CRCBT antibodies based on weaker interaction with surface exposed residues in sub-domain 3.

[3] = molecular target: phage expressed hFn14 mutant R58A (human, UniProt Q9NP84 28-77); experiment: phage ELISA (Method 2), antibody on plate, phage dilution 1/X on the x axis
From the text: FIG. 26 is a graphical representation showing results of an ELISA testing the reactivity of mutant hFn14 phage construct comprising a R58A mutation with the anti-Fn14 monoclonal antibodies CRCBT-06-001, CRCBT-06-002, CRCBT-06-004 compared to ITEM-1 and ITEM-4. Binding was detected using Biotin-conjugated anti-M13-phage monoclonal antibody followed by HRP-conjugated Streptavidin and TMB substrate. Optical density at 450 nm was quantified using a Spectramax spectrophotometer. Error bars for each dilution represent the standard deviation of duplicate assays. X axis=dilution of phage. Methods according to Epitope mapping using phage expressed Fn14—Method 2
as §1, with “temperature.” for “temperature. Phage was subsequently removed from the wells and the ELISA plates were washed three times with PBS/0.05% Tween 20.”
Method A: HRP-conjugated anti-M13-phage antibody (GE Healthcare) at a 1/5000 dilution in PBS was then added to the wells of the ELISA plates for 1 hour, shaking at room temperature. […] Optical density at 450 nm was quantified using a Spectramax absorbance spectrophotometer.

[4] = molecular target: T2, synthetic peptide Sub-domain 2 Cys 3&6 ΔS (human, not fully specified; biotin on the added C-terminal lysine); experiment: peptide ELISA: biotinylated synthetic peptide on neutravidin plate, antibody titrated (legend: 0.1-0.0001 µg/ml; axis 'Log (c)'), anti-mouse HRP, TMB, OD 450 nm
T2 construct: also called sub-domain 2 cys3&6ΔS mutant
T2 peptide: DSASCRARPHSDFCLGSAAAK

binding result [1]: binds
% decrease in binding compared with CRCBT-06-005 [2]: 43%
binding result [3]: binds
binding result [4]: binds
B1: CRCBT-06-002 (antibody, IgG1, V domains shown)
VH: EVKLQQSGGGLVQPGGSMKLSCVASGFTFSYYWMNWVRQSPEQGLEWIAEIRLQSNDYPTHYAESVKGRFTISRDDSKNSVYLQMNNLRPEDTGIYYCACRYADYFDHWGQGTTLTVSS
VL: DTVLTQSPASLVVSLGQRATISCRASQSVSTSDYSYIHWYQQKPGQPPKFLIKYASNRDSGVPARFSGSGSGTDFTLNIHPVEEDDTAIYYCQHSWEIPPTFGAGTKLELQR

binding result [1]: binds
% decrease in binding compared with CRCBT-06-005 [2]: 60%
binding result [3]: binds
binding result [4]: binds
B2: CRCBT-06-001 (antibody, IgG2b, V domains shown)
VH: QVQLQQSGGGLVQPGGSMKLSCIASGFTFSSYWMSWVRQSPEKGLEWVAEIRSKSDNYATHYAESVKGKFTISRDDSKSRFFLQMNNLRAEDTGIYYCSSTYADYFHYWGQGTDLTVSS
VL: DIVMTQTPASLAVSLGQRATISCRASQSVSTSTYSYMHWYQQKPGQPPKLLIKYASSLESGVPARFSGSGSGTDFTLNIHPVEEDDTATYYCQHSWEIPYTFGGGTKLEIKR
